From PMC3098244

Legend:
K63-linked diubiquitin = K63-linked diubiquitin (UniProt P0CG48); assay: ITC; settings: domain or fragment
K48-linked diubiquitin = K48-linked diubiquitin (UniProt P0CG48); assay: ITC; settings: domain or fragment

Sequence of GB1-HSJ1a-UIM12 (UIM domain of HSJ1a, residues 206-272, fused to GB1) (P25686 206-272): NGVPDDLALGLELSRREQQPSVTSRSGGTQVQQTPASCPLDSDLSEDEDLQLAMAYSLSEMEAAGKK

## GB1-HSJ1a-UIM12 (UIM domain of HSJ1a, residues 206-272, fused to GB1) (from UniProt P25686-2 206-272)
K63-linked diubiquitin
  Kd: 153 µM
K48-linked diubiquitin
  Kd: 57 µM
